Values of other authors in article PMC3633488.
pKd: −log10 of the molar value.

Target: FGF-2 (Homo sapiens) (UniProt P09038)

pKd: 7.15
Substance: perlecan (from UniProt P98160)
